This note sets out measurements from US20200299400A1.

The target of the experiment is human GITR on activated CD4 T cells (human) (UniProt Q9Y5U5). The experiment is described as follows: FACS binding to activated human CD4 T cells. For orientation: A flow cytometer gives signals particle by particle.
Sequence of human GITR on activated CD4 T cells (human) (Q9Y5U5 26-241): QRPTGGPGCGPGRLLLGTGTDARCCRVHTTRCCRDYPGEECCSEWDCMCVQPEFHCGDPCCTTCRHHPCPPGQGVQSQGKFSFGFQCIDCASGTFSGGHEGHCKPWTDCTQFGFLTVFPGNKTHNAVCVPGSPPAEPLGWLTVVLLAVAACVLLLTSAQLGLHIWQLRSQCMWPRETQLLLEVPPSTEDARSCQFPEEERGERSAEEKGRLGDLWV

The EC50 is the concentration that produces a half-maximal response. Regarding unrelated hIgG1, the EC50 was determined as 132 nM.

unrelated hIgG2: the EC50 came out at 6.72 nM.
